Experimental data as given in patent US20240376204A1.

Biological target: human PVRIG expressed on cells (human) (UniProt Q6DKI7)
Experiment: cell-based or functional assay

Sequence of human PVRIG expressed on cells (human) (Q6DKI7 41-326 limits assumed, form in doubt): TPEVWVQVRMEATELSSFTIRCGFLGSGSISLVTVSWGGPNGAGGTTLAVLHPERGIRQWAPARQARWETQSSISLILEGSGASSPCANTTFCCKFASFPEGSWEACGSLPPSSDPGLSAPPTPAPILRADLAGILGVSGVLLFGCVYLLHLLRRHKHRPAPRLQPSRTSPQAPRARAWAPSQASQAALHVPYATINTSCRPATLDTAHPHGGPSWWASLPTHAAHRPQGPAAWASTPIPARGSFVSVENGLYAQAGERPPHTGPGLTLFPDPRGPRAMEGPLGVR

With hIgG4 isotype control (antibody) the IFNγ, mixed lymphocyte reaction, 20 nM antibody was 74 pg/mL, the IFNγ, mixed lymphocyte reaction, 100 nM antibody was 89 pg/mL and the Killing activity (%) of NK92 on K562, 4 nM antibody was 11.2%. For the same substance, the Killing activity (%) of NK92 on K562, 20 nM antibody was 11.7% and the Killing activity (%) of NK92 on K562, 100 nM antibody was 9.2%.
